Measured values from paper PMC10368727, “Sequestration of histidine kinases by non-cognate response regulators establishes a threshold level of stimulation for bacterial two-component signaling” (Nature Communications, 2023).

T1: phosphorylated, GFP-tagged HK MtrB (cytosolic catalytic domain) (M. tuberculosis, UniProt P9WGK9 234-567)
T1 construct: also called MtrB~P; P~MtrB-GFP
T1 sequence: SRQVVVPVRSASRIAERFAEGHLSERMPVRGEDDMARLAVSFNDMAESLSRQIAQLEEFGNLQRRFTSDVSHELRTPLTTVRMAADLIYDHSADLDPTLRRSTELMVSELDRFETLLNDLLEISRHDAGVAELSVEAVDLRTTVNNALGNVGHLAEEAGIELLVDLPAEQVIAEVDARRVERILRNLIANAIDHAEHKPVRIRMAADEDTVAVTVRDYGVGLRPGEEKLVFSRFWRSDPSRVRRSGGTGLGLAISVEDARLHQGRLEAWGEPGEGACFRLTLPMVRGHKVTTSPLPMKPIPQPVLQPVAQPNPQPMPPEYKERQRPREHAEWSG


Target: T1, phosphorylated, GFP-tagged HK MtrB …
Test: MST
Conditions: both partners purified

| Binder | Kd [nM] |
| --- | --- |
| MtrA^D56N, phosphor-defective mutant of MtrA (natural protein) MDTMRQRILVVDDDASLAEMLTIVLRGEGFDTAVIGDGTQALTAVRELRPDLVLLNLMLPGMNGIDVCRVLRADSGVPIVMLTAKTDTVDVVLGLESGADDYIMKPFKPKELVARVRARLRRNDDEPAEMLSIADVEIDVPAHKVTRNGEQISLTPLEFDLLVALARKPRQVFTRDVLLEQVWGYRHPADTRLVNVHVQRLRAKVEKDPENPTVVLTVRGVGYKAGPP | 371 ± 130 |
| NarL^D61N, phosphor-defective mutant of NarL (natural protein) MSNPQPEKVRVVVGDDHPLFREGVVRALSLSGSVNVVGEADDGAAALELIKAHLPDVALLNYRMPGMDGAQVAAAVRSYELPTRVLLISAHDEPAIVYQALQQGAAGFLLKDSTRTEIVKAVLDCAKGRDVVAPSLVGGLAGEIRQRAAPVAPVLSAREREVLNRIACGQSIPAIAAELYVAPSTVKTHVQRLYEKLGVSDRAAAVAEAMRQRLLD | 78 ± 13 |
